Assay: yeast display, Sf9 membrane polyspecificity reagent, FACS + sequencing; frameworks hold sequencing errors
In short: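 Using colony PCR, genes from sorted yeast display clones were amplified, then sequenced on MiSeq at 2 × 250 and filtered by CDR length. The clones had been stained with 10% biotinylated, detergent-solubilized Sf9 membrane reagent for 1 hour at 4 °C and sorted by FACS into low and high (top ~1%) gates on anti-HA and streptavidin fluorescence. Polyreactivity labels come from the gate of origin.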

Sequence: QVQLVESGGGLVQAGGILRLSCAASGSIFGGYGMGWYRQAPGKERELVAAITSVSSTYYADSVKGRFTISRDNAMNTVYVQMNSLKPEDTAVYYCAARPYPHSAYEGDYWGRGTQVTVSS
- polyreactivity (PSR sort gate): low polyreactivity

Sequence: QVQLVESGGGLVQAGGRLRLSCADSGFTFDANAMGWYRQAPGKEPELVAAISLSDGSTYYADSVKGRFTISRDNAKNTVYLQMNSLKPEDTAVYYCNAERFGSGLAWLLFDYWGQGTQVTVSS
- polyreactivity (PSR sort gate): low polyreactivity

Sequence: QVQHVESGLGLDQAAGSLRLSSAASGFIFWYSSMGWYREARGKERELVAAITGGAITYYADSVKGRFTITRDNAKNTVYLPMNSLIPEDTAVYYGADELTLGRFRYDYWGQGTQVTVSA
- polyreactivity (PSR sort gate): high polyreactivity

Sequence: QVQLVESGGGLVQAGGSLSLSCAASGLILSDNAMGWYRQAPGKEREFVASITSSGGSTHYADSVKGRFTISRDNAKNTVYFQMNSLKPEDTAVYYCAKDYYEGDSYPYPGYEYWGQGTQVTVSS
- polyreactivity (PSR sort gate): low polyreactivity

Sequence: QVQLVESAGGLVQAGGSLRLSCAASGRTFTCNAMGWYRQAPGKERELVAAISYSGGSTYYADSVKGRFTISRDNAKNTVYLQMNSLKPEDTAVYNCAVLGTPYGLNDYWGQGTQVTVSS
- polyreactivity (PSR sort gate): high polyreactivity

Sequence: QVQLVESGGGLVQAGGSLRLSCAASGITFRHYAMGWYRQAPGKEREMVARIRGGGVSTYYADSVKGRFTISRDNAKNTVYLQMNSLKPEDTAVYYCNAVFESWWGDYDYWGQGTQVTVSS
- polyreactivity (PSR sort gate): high polyreactivity

Sequence: QVQLVESGGGLVQAGGSLRLSCAASGSIFRWNAMGWNRQEPGKERELVAVINSSGGSTYYADSVKGRFTISRDNAKNTVYLQMNSLKPEDTAVYYCAKGYDTTLTYNYWGQGTQVTVSS
- polyreactivity (PSR sort gate): low polyreactivity

Sequence: QVQLVESGGGLVQAGGSLRLSCAASGSTCGTNAMGWYRQAPGKERELVAAITWSGGRTYYADSVKGRFTISRDNAKNTVYLQMISLKPEDTAVYYCNAGYSYRRRNGYGYDYWGQGTQVTVSS
- polyreactivity (PSR sort gate): high polyreactivity

Sequence: QVQLVESRGGLVQAGGSLRLSCAASGYAMGWYRQAPGKERELVAAITSGGSTNYADSVKGRFTISRDNAKNTVYLQMNSLKPVDTAVYYCAAAYSLYGHRYDYWGQGTQVTVSS
- polyreactivity (PSR sort gate): high polyreactivity

Sequence: QVQLVESGGGLVQAGGSLRLSCAASGFIFPVNAMGWYRQAPGKERELVAAITSSGGDTYYADSVKGRFTISRDNAKNTVYLQMNSLKPEDTAVYYCAAEYTQEQEDYDYWGQGTQVTVSS
- polyreactivity (PSR sort gate): low polyreactivity

Sequence: QVQLVESGGGLVHAGGSLRLSSAASGRTFLSYTMGWYRQAPGKERELVAVISRSGGRTYYADSVKGRFTISRDNATNTVYLQMNSLKPEDTADYYCAADTYRGYDFDYWGQGSQVTVSS
- polyreactivity (PSR sort gate): high polyreactivity

Sequence: QVPLVESGGGLVQAGGSLRLSCAASGRIFYFNDMGWYRQAPGKERELVAAISRSGGSTYYADSVKGRFTISRDNAKNTVYLQMNSLKPEDTAVYYCAAGRDTWPSTYYYWGQGTQVTVSS
- polyreactivity (PSR sort gate): low polyreactivity

Sequence: QVHLVESGGGLVQAGGSLRLSSAASGRTFRGNAMGWYRQPPGKEREFDAVISGSGGSTYYADSVKGRFTISRDNAKNTVYLQMNSLKPEDTAVYYCGDKPSRWQRYDYWGQGTQVTVSS
- polyreactivity (PSR sort gate): high polyreactivity

Sequence: QVQLIESGGGIVQAGGSLRLSSAASGIIFDWYTMGWYRQATGKERELVAAISWRGGRTYYADSVKGRFTISRDNAKNTVYLQMNSLKAVDTGVYYCAAEAPVQPFYVFNSGIYDLDYWGQGTHVTVSS
- polyreactivity (PSR sort gate): low polyreactivity

Sequence: QVQLVESGGGLVQAGGSLRLSCAASGFIFWSNAMGWYRQAPGKERELVAAINSSGGRTYYADSVKGRFTISRDNAKNTVYLQMNSLKPEDTAVYYCAARLHSPRYRYDYWGQGTQVTVSS
- polyreactivity (PSR sort gate): high polyreactivity

Sequence: QVQLVESGGGLVQAGGSLRLSCAASGSIFGEYAMGWYRQAPGKERELVAAITFSTGSTYYADSVKGRFTISRDNAKNTVYLQMNSLKPEDTAVYYCAAESYTYYWYDYEYWGQGTQVTVSS
- polyreactivity (PSR sort gate): high polyreactivity

Sequence: QVQLVDSGGGLVQAGGSLRLSCAASGSIFWIYSMGWYRQAPGKERELVATISRGGSTYADSVKGRFTISRDNAKNTVYLQMNSLKPEDTPVYYCAARAFAGNQQAYYYWGQGTQVTVSS
- polyreactivity (PSR sort gate): high polyreactivity

Sequence: QVQLVESGGCLVQAGGSLRLSCAASGNTFSTYTMGWYRQAPGKERELVAALTRSRGRTYYADSVKGRFTISRDTAKNTVYLQMNSLKPEDTAVYYCNAYTADLDDYWGQGNQVTVSS
- polyreactivity (PSR sort gate): high polyreactivity

Sequence: QVQLVESGGGLVQAGGSLRLSCAASGYNFVRNAMGWYRQAPGKERELVAAISGSGGSTYYADSVKGRFTISRDNAKNTVYLQMNSLKPEDTAVYYCAADYATVTWRGIAYDYWGQGTQVTVSS
- polyreactivity (PSR sort gate): low polyreactivity

Sequence: QVQLVESGGGLVQAGGSLRLSCAASGIFRGYAMGWYRQAPGKEREFVAAISRTGGGTYYADSVKGRFTISRDNAKNTVYLQMNSLKPEDTAVYYCAAVRKYDGQKFGYWGQGTQVTVSS
- polyreactivity (PSR sort gate): low polyreactivity

Sequence: QVQLVESGGGLVQAGGSLRLSCAASGSIFKQYAMGWYRQAPGKERELVARITGSGGSTYYADSVKGRFTISRDNAKNTVYLQLNSLKPEDTAVYYCANKRYARSSGGYDYWGQGTQVTVSS
- polyreactivity (PSR sort gate): low polyreactivity

Sequence: QVQLVESGGGLVQAGGSLRLSCAASGRIFTTYAMGWYRQAPGKERELVASITTTDTRTYADSVKGRFTISRDNAKNTVYLQMNSLKPEDTAVYNCAKDRLNKGRYYRAASDYWGQGTQVTVSS
- polyreactivity (PSR sort gate): low polyreactivity

Sequence: QVQLVESGGGLVQAGGSLRLSCAASGRTFDRNAMGWYRQAPGKERELVARITIDGSTNYADSVKGRFTISRDNAKNTVYLQMNSLKPEDTAVYYCATDQLSLSWYFRPYDYGYWGQGTQVTVSS
- polyreactivity (PSR sort gate): high polyreactivity

Sequence: QVQLVESGGGLVQAGGSLRLSCAASGRTFAYNTMGWYRQAPGKERELVAVISSGGRTYYADSGKGRFTMSRDNAKNTVYLQMNSLKPEDTAVYYCAADGYPYKYDYWGQGTQVTVSS
- polyreactivity (PSR sort gate): high polyreactivity

Sequence: QGQLVESGGGLVQAGGSLRLSCAASGRTFFNNVMGWYRQAPGKERELVAAISKSGTRTYYADSVKGRFTISRDNAKNTVYLQMNSVKPEDTAVYYCATGQYLRTSRYYYWGHGTQVTVSS
- polyreactivity (PSR sort gate): high polyreactivity

Sequence: QVQLVESGGGLVQAGGSLRLSCAASGITFVRNAMGWYRQAPGKERELVAAISGRGGITYYADSVKGRFTISRDNAKNTVYFQMNSLKPEDTAVYYCAASSAGSSYNYWGQGSQVTVSS
- polyreactivity (PSR sort gate): high polyreactivity

Sequence: QVQLVESGGGLVQAGGSLRLSCAASVFYPYAMGWYRQAPGKERELVAAISWSGGRTYYADSVKGRFTISRDNAKNTVYLQMNSLKPEDTAVYYCNKVYSSYRVYDFNYWGQGTQVTVSS
- polyreactivity (PSR sort gate): high polyreactivity

Sequence: QVQLVESGGGLVQAGGSLSLSCAASGSTIVVNAMGWYRQAPGKERELVASISWTTCSTYYADSVKGRFTISRDNAKNTVYLQMNSLKPEDTAVYYCAADILPRYSQFDYWGQGTQVTVSS
- polyreactivity (PSR sort gate): low polyreactivity

Sequence: QVQLVESGGGLVQAGGSLRLSCAASGGILGWSAMGWSRQAPGKERELVAAIRDSGGSTYYADSVKGRFTIARDNAKKTVYLQMNSLKPEDTAVYYCAAYYIASRSTRYYYWGQGTQVTVSS
- polyreactivity (PSR sort gate): high polyreactivity

Sequence: QVQLVESGGGLVQAGGSLRLSCAASGIIYYTYAMGWYRQAPGKERELVATISWDVDSTNYADSVKGRFTISRDNAKNTVYLQMNSLKPEDTALYYCAGDYTVDSYWYWVDYYEYGYWGQGTQVTVSS
- polyreactivity (PSR sort gate): high polyreactivity

Sequence: QVQLVESGGGLVQAGGSLRLSCAASGLTFAANAMGWYRQAPGKERELVAAITSSGGSTYYADSVKGRFTISRDNAKNTVYLQMNSLKPEDTAVYYCAARASRPRFGYWGQGTLVTVSS
- polyreactivity (PSR sort gate): high polyreactivity

Sequence: QVQLVESGGGLDQAGGSLRLSCAASGSIFRGYAMGWYRQAPGKERDLVAAINRSGGRTYYADSVKGRFTISRDNAKNTVYLQMNRLKPEDTAVYYCAADYFFYQPSGYDYWGQGTQVTVSS
- polyreactivity (PSR sort gate): high polyreactivity

Sequence: QVQLVESGGGLVQAGGSLRLSCAASGRIFRWYTMGWYRQAPGKERELVARISSGGITYYADSVKGPFTISRDNAKNTVYLQMNSLKPEDTAVYYCNTYVSRNFDYWGQGTQLTVSS
- polyreactivity (PSR sort gate): high polyreactivity

Sequence: QVQLVESGGGLVQAGGSLRLSCADSGSIFQYYVRGCYRQAPGKERELVAAIRRSGTTYYADSVKGRFTISRDNAKNTVYLQMNSLKTEDTAVDYCNKVRCQEPSNYDYWVQGTQVTVSS
- polyreactivity (PSR sort gate): low polyreactivity

Sequence: QVQLGESGGGLVQAGGSLRLSCAASGIIFRYYAMAWYRQAPGKERELVAAISSSTGNTYYADSVKGRFTISRDNAKNTVYLQMNSLIPEDTAVYYCAARTRQISIVGYNYWGQGTQVTVSS
- polyreactivity (PSR sort gate): high polyreactivity

Sequence: QVQLVESGGGLVQAGGSLSLSCAATGSIITSNAMGWYRQAPGKERELVAAISWSGSRTFYADSVKGRFTISRDNEKNTVYLQMNSLKPEDTAVYYCAAGNRKWKMGYWGQGTQVTVSS
- polyreactivity (PSR sort gate): high polyreactivity

Sequence: QVQLVESGGGLVQAGGSLRLSCAASGYTFSYNTMGWYRQAPGKERELVAAIRLSGGSTYYADSVKGRFTSSRDNAKNTVYLQMNSLKPEDTAVYYCAARQIITKFYTSNGVSYYYWGQGTQETVSS
- polyreactivity (PSR sort gate): high polyreactivity

Sequence: QVQLVESVGGLVQEGGTLRLSCAASGSTFEVYTMGWYRQAPGKERELVAAITKNGGTTYYADSVKGRFTISRDNAKNTVYLQMNSLKPEDTAVYYCAVYYYSGYYYWDYYWGQGTQVTVSS
- polyreactivity (PSR sort gate): low polyreactivity

Sequence: QVQLVESGGGLVQAGGSLRLSCAASGFTFPPYAMGWYIQAPGKERELVAGISWIGSSTYYADSVKGRFTISRDNAKNTVYLQMNSLKPEDTAVYYCNARYLLFAGGRRYYWGQGTQVTVSS
- polyreactivity (PSR sort gate): high polyreactivity

Sequence: QVQLVETGAGLVQAGGSLRLSCGASGLTFARYAMGWYRQAPGKERELVAGIDSTGGTTYYADSVKGRFTISRDNAKNTVYLQMNSLKPVDTAVYYCYYWGLGTQVTVSS
- polyreactivity (PSR sort gate): low polyreactivity

Sequence: QVQLVESGGGLVQAGGSLRLSCAASGFIFHTNTMGWYRQAPGKERELVAAISSGGRTNYADSVKGRFTISRDNAKNTVYLQMNSLKPEDTAVYYCAARVGSGFDSWGQGTQVTVSS
- polyreactivity (PSR sort gate): high polyreactivity

Sequence: QVQLVESGGGLVQAGGSLRLSCAASGIIFPQYTMGWYRQAPGKERQLVAAITRSGGSTDYADSVKGRFTISRDNAKNTVYLQMNSLKPEDTAVYYCAAGWWRYKYPIGSSYNYWGQGTQVTVSS
- polyreactivity (PSR sort gate): high polyreactivity

Sequence: QVQLVESGGGLVQAGGSLRLSCAASGSIFGYYTMGWYIQAPGKERELVATITSGGSTYYADSVKGRFTISRDNAKNSVSLQMNSLKPEDTAVYYCNADRYWRVYWGQGTQVTVSS
- polyreactivity (PSR sort gate): high polyreactivity

Source: the nanobody polyreactivity screen of Harvey et al. (2022)
